Experiments:
Test in all cases: coIP
[1] = molecular target: RNF26, wild type (coIP of Figures 5A and 5B) (UniProt Q9BY78); details: HEK293T cells; n = 3; parent: est. 100; read off a plot
HA-RNF26 = HA-RNF26 (UniProt Q9BY78); details: n = 3; parent: est. 100; read off a plot
RFP-RNF26 = RFP-RNF26 (UniProt Q9BY78); details: n = 3; parent: est. 100; read off a plot

With “TOLLIP, wild type (coIP of Figure 5B) (from UniProt Q9H0E2) CUE*” the percent of parent [1] was 13 % Co-IP.
GFP-TAX1BP1 (from UniProt Q86VP1) UBZ2* showed a percent of parent (HA-RNF26) of 39 % Co-IP.
For FLAG-EPS15 (from UniProt P42566) UIM*, the percent of parent (RFP-RNF26) was 14 % Co-IP.

Source: publication PMC4930482
